Test results: patent publication US20210238276A1 (INTEGRAL MOLECULAR, published 2021)
Residue numbers refer to the chain shown, from its start. Blank lines part the entries; values can stand above or below the molecule they belong to.

Tests used:
Test in all cases: flow cytometry, alanine-scan library in HEK-293T
hsGLUT4 G446A = target: T1, hsGLUT4 G446A (human, UniProt P14672 1-509)
T1 sequence: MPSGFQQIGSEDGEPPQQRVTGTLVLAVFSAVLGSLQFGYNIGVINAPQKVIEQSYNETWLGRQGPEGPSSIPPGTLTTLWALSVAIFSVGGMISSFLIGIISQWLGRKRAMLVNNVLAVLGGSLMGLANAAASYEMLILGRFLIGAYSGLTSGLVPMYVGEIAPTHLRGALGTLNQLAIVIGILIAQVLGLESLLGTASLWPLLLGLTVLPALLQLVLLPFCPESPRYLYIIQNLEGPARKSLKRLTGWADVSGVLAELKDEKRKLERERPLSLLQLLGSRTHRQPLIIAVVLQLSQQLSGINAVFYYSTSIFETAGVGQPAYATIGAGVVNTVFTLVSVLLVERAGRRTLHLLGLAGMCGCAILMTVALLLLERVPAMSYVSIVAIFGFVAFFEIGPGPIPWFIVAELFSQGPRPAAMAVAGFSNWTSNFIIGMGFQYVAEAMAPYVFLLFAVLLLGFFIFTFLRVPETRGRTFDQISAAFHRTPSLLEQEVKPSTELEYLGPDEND
How it was run: (§1)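 HEK-293T cells expressing individual GLUT4 alanine mutants were stained 48 h post-transfection with anti-GLUT4 scFv MAbs (2 μg/ml), then biotinylated secondary and streptavidin-PerCP, and read by high-throughput flow cytometry. Where used, cytochalasin B (10 uM final) was given for 30 min before and during primary antibody staining.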

hsGLUT4 Q298A = target: T2, hsGLUT4 Q298A (human, UniProt P14672 1-509)
T2 sequence: T1 sequence with Q298A, A446G
How it was run: as §1

hsGLUT4 R169A = target: T3, hsGLUT4 R169A (human, UniProt P14672 1-509)
T3 sequence: T1 sequence with R169A, A446G
How it was run: as §1

hsGLUT4 E345A = target: T4, hsGLUT4 E345A (human, UniProt P14672 1-509)
T4 sequence: T1 sequence with E345A, A446G
How it was run: as §1

B1: AB108 (Fc fusion)
scFv: ALTQPSSVSANLGGTVKITCSGSSGSYGWYQQKAPGSAPVTLIYRNDKRPSDIPSRFSGSESGSTGTLTITGVQAEDEAVYFCGGYDSSAGYAAFGAGTTLTVLGQSSRSSGGGGSSGGGGSAVTLDESGGGLQTPGGALSLVCKASGFTFSSHGMGWVRQAPGKGLEWVGSISTGRYTFYAPAVKGRATISRDNGQSTLRLQLNNLRAEDTGTYYCTKCAGLNGCGGGEIDAWGHGTEVIVSS
notes: Bivalent scFv-Fc; also called MAb AB108; not shown: Fc fragment of human IgG1, cloned in frame with the scFv
- % of binding to wild type GLUT4 (hsGLUT4 G446A): 86%
- % of binding to wild type GLUT4 (hsGLUT4 Q298A): 78%
- % of binding to wild type GLUT4 (hsGLUT4 R169A): 108%
- % of binding to wild type GLUT4 (hsGLUT4 E345A): 88%

B3: AB111 (Fc fusion)
scFv: ALTQPSSVSANPGETVKITCSGSGSWYGWFQQKSPGSAPVTVIYSNDKRPSDIPSRFSGSKSGSTSTLTITGVQVEDEAVYYCGNWDIFGAGTTLTVLGQSSRSSGGGGSSGGGGSAVTLDESGGGLQTPGGALSLVCKASGFTFSSHGMGWVRQAPGKGLEWVASISTGRYTFYAPAVKGRATISRDNGQSTVRLQLNNLRAEDTATYYCTKCAGLNGCGGGEIDAWGHGTEVIVSS
notes: Bivalent scFv-Fc; also called MAb AB111; not shown: Fc fragment of human IgG1, cloned in frame with the scFv
- % of binding to wild type GLUT4 (hsGLUT4 G446A): 71%
- % of binding to wild type GLUT4 (hsGLUT4 Q298A): 145%
- % of binding to wild type GLUT4 (hsGLUT4 R169A): 97%
- % of binding to wild type GLUT4 (hsGLUT4 E345A): 200%

Continued, values first:

- % of binding to wild type GLUT4 (hsGLUT4 G446A): 108%
- % of binding to wild type GLUT4 (hsGLUT4 Q298A): 87%
- % of binding to wild type GLUT4 (hsGLUT4 R169A): 84%
- % of binding to wild type GLUT4 (hsGLUT4 E345A): 93%
Molecule: 1F8 (antibody)

- % of binding to wild type GLUT4 (hsGLUT4 G446A): 95%
- % of binding to wild type GLUT4 (hsGLUT4 Q298A): 107%
- % of binding to wild type GLUT4 (hsGLUT4 R169A): 119%
- % of binding to wild type GLUT4 (hsGLUT4 E345A): 78%
B2: AB101 (scFv)
scFv: ALTQPSSVSANPGETVKITCSGSSNSYGWYQQKSPGSAPVTVIYYNDKRPSDIPSRFSGSKSDSTHTLTITGVRAEDEAVYFCGSYDSTYVGIFGAGTTLTVLGQSSRSSGGGGSSGGGGSAVTLDESGGGLQTPGGTLSLVCKASGFTFSSNAMGWVRQAPGKGLEWVAGISSDGRYTKYGSAVKGRATISRDNGQSTVRLQLNNLRAEDTGTYFCAKAFGNNYRRIYAGQIDAWGHGTEVIVSS
notes: Chicken-derived clone used as a control; the four lead clones were tested as scFv-human IgG1 Fc; also called MAb AB101
